Measurements: patent US20250270313A1 (SUNSHINE LAKE PHARMA, published 2025)
Substitutions are numbered along the chain they refer to. One block for each binder: values may come before it.

Legend:
[1] = target: T1, human Claudin 18.2 (hClaudin18.2) (human, UniProt P56856-2 1-261); assay: flow cytometry on CHO cells overexpressing claudin18.2, scFv-Fc fusion protein
T1 construct: whole, on cells; also called CLDN18.2; hClaudin18.2-CHO
Protocol: CHO overexpressing claudin18.2 cells were prepared and centrifuged at 300 g for 5 minutes, then resuspended in PBS, and this step was repeated twice. Finally, the concentration was adjusted to 3E+06 cells/mL with PBS. […] CHO overexpressing claudin18.1 cells and CHO overexpressing claudin18.2 cells were laid out in two rows of transparent 96 round-bottomed wells, each with 100 μL, and then the antibodies were added to the cells in order and mixed evenly at 1:1. Each was set blank wells and negative wells. The mixture was put in a refrigerator at 4° C. and incubated for 1 hour. After the incubation, the mixture was centrifuged at 500 g for 3 min in a large-capacity benchtop high-speed centrifuge, then resuspended in PBS, and this step was repeated three times. The PE-labeled goat anti-human secondary antibody was diluted to a concentration of 1:500, and 100 μL was added to each well. The blank wells were left alone. The mixture was put in a refrigerator at 4° C. and incubated for 30 min. After the incubation, the mixture was centrifuged at 500 g for 3 min in a large-capacity tabletop high-speed centrifuge, then resuspended in PBS, and this step was repeated three times. Finally, 180 μL of PBS was added to each well and BDverse flow cytometer was used to test.

[2] = target: T1, human Claudin 18.2 (hClaudin18.2); assay: cell-based or functional assay
[3] = target: T1, human Claudin 18.2 (hClaudin18.2); assay: flow cytometry on CHO cells overexpressing claudin18.2, purified murine antibody
Protocol: CHO overexpressing claudin18.1 cells and CHO overexpressing claudin18.2 cells were prepared, centrifuged at 300 g for 5 minutes, then resuspended in PBS, and this step was repeated twice. Finally, the concentration was adjusted to 3E+06 cells/mL with PBS. […] CHO overexpressing claudin18.1 cells and CHO overexpressing claudin18.2 cells were laid out in two rows of transparent 96 round-bottomed wells, each with 100 μL, and then the antibodies were added to the cells in order and mixed evenly at 1:1. Each was set blank wells and negative wells. The mixture was put in a refrigerator at 4° C. and incubated for 1 hour. After the incubation, the mixture was centrifuged at 500 g for 3 min in a large-capacity benchtop high-speed centrifuge, then resuspended in PBS, and this step was repeated three times. The PE-labeled goat anti-mouse secondary antibody was diluted to a concentration of 1:500, and 100 μL was added to each well. The blank wells were left alone. The mixture was put in a refrigerator at 4° C. and incubated for 30 min. After the incubation, the mixture was centrifuged at 500 g for 3 min in a large-capacity tabletop high-speed centrifuge, then resuspended in PBS, and this step was repeated three times. Finally, 180 μL of PBS was added to each well and BDverse flow cytometer was used to test.

[4] = target: T2, hClaudin 18.2 peptide 18.2EL1-A (human); assay: peptide competition: antibody pre-incubated with peptide, then flow cytometry on CHO cells overexpressing claudin18.2
T2 construct: also called peptide A; A peptide
T2 peptide: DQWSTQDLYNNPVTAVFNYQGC

[5] = target: T3, hClaudin 18.2 peptide 18.2EL1-E (human); assay: as above
T3 construct: also called peptide E; E peptide
T3 peptide: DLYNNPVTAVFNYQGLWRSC

EC50 [1]: ~0.5 µg/mL
B1: m1B6-FC anti-Claudin 18.2 scFv-Fc fusion protein (Fc fusion)
scFv: DIVMTQSPSSLTVTAGEKVTMSCKSSQSLFNSGNQKNYLTWYQQKPGQPPKLLIYWASTRESGVPDRFTGSGSGTDFTLTISSVQAEDLAVYFCQNDYSYPLTFGAGTKLELRGGGGSGGGGSGGGGSEVQLQQSGPELVRPGASVKMSCKASGYTFTDYNMHWVKQSHGKSLEWIGYINPNNGGTSYNQKFKGKATLTVNKSSSTAYMELRSLTSEDSAVYYCVTTRYLAVWGTGTTVTVSS
notes: also called m1B6 (Fc fusion protein form); 1B6 scFv-Fc; not shown: detected wi

EC50 [3]: ~0.1 µg/mL | binding result [4]: binds
B3: m1E7 anti-Claudin 18.2 murine monoclonal antibody (antibody, mouse IgG2b, kappa)
heavy: QVQLQQPGSELVKPGASVKLSCKASGYTFTSYWMHWVKQRPGQGLEWIGMIHPNSGSTNYNEKFKSKATLTVDKSSSTAYMQLSSLTSEDSAVYYCARRYYGSISPDYWGQGTTLTVSSAKTTPPSVYPLAPGCGDTTGSSVTLGCLVKGYFPESVTVTWNSGSLSSSVHTFPALLQSGLYTMSSSVTVPSSTWPSQTVTCSVAHPASSTTVDKKLEPSGPISTINPCPPCKECHKCPAPNLEGGPSVFIFPPNIKDVLMISLTPKVTCVVVDVSEDDPDVQISWFVNNVEVHTAQTQTHREDYNSTIRVVSTLPIQHQDWMSGKEFKCKVNNKDLPSPIERTISKIKGLVRAPQVYILPPPAEQLSRKDVSLTCLVVGFNPGDISVEWTSNGHTEENYKDTAPVLDSDGSYFIYSKLNMKTSKWEKTDSFSCNVRHEGLKNYYLKKTISRSPGK
light: DIVMTQSPSSLSVTAGEKVTMSCKSSQSLLNSGNQKNYLTWYQQKPGQPPKLLIYWASTRESGVPDRFTGSGSGTDFTLTISSVQAEDLAVYYCQNDYSYPFTFGSGTKLEIKRADAAPTVSIFPPSSEQLTSGGASVVCFLNNFYPKDINVKWKIDGSERQNGVLNSWTDQDSKDSTYSMSSTLTLTKDEYERHNSYTCEATHKTSTSPIVKSFNRNEC
notes: Murine antibody with full heavy and light chains; also called 1E7 (hybridoma); m1E7 mAb

EC50 [1]: ~2.6 µg/mL
B5: m1E7-FC anti-Claudin 18.2 scFv-Fc fusion protein (Fc fusion)
scFv: DIVMTQSPSSLSVTAGEKVTMSCKSSQSLLNSGNQKNYLTWYQQKPGQPPKLLIYWASTRESGVPDRFTGSGSGTDFTLTISSVQAEDLAVYYCQNDYSYPFTFGSGTKLEIKGGGGSGGGGSGGGGSQVQLQQPGSELVKPGASVKLSCKASGYTFTSYWMHWVKQRPGQGLEWIGMIHPNSGSTNYNEKFKSKATLTVDKSSSTAYMQLSSLTSEDSAVYYCARRYYGSISPDYWGQGTTLTVSS
notes: also called m1E7 (Fc fusion protein form); 1E7 scFv-Fc; not shown: detected wi

Continued, binder first:

B2: IMAB362 control antibody (antibody, V domains shown)
VH: QVQLQQPGAELVRPGASVKLSCKASGYTFTSYWINWVKQRPGQGLEWIGNIYPSDSYTNYNQKFKDKATLTVDKSSSTAYMQLSSPTSEDSAVYYCTRSWRGNSFDYWGQGTTLTVSS
VL: DIVMTQSPSSLTVTAGEKVTMSCKSSQSLLNSGNQKNYLTWYQQKPGQPPKLLIYWASTRESGVPDRFTGSGSGTDFTLTISSVQAEDLAVYYCQNDYSYPFTFGSGTKLEIKR
ADCC reporter (Jurkat-NFAT-Luc-CD16 luciferase), half-peak concentration EC50, target cell BXPC-3-Claudin 18.2 [2]: 3.45 ng/mL | ADCC reporter (Jurkat-NFAT-Luc-CD16 luciferase), half-peak concentration EC50, target cell Capan-1-Claudin 18.2 [2]: 3.48 ng/mL | ADCC reporter (Jurkat-NFAT-Luc-CD16 luciferase), half-peak concentration EC50, target cell SK-GT-Claudin 18.2 [2]: 9.06 ng/mL | CDC activity (CCK8 cell viability, OD450), half inhibitory concentration IC50, target cell KATOIII-3-Claudin 18.2 [2]: 4.89 µg/mL

B4: m1B6 anti-Claudin 18.2 murine monoclonal antibody (antibody, mouse IgG2b, kappa)
heavy: EVQLQQSGPELVRPGASVKMSCKASGYTFTDYNMHWVKQSHGKSLEWIGYINPNNGGTSYNQKFKGKATLTVNKSSSTAYMELRSLTSEDSAVYYCVTTRYLAVWGTGTTVTVSSAKTTPPSVYPLAPGCGDTTGSSVTLGCLVKGYFPESVTVTWNSGSLSSSVHTFPALLQSGLYTMSSSVTVPSSTWPSQTVTCSVAHPASSTTVDKKLEPSGPISTINPCPPCKECHKCPAPNLEGGPSVFIFPPNIKDVLMISLTPKVTCVVVDVSEDDPDVQISWFVNNVEVHTAQTQTHREDYNSTIRVVSTLPIQHQDWMSGKEFKCKVNNKDLPSPIERTISKIKGLVRAPQVYILPPPAEQLSRKDVSLTCLVVGFNPGDISVEWTSNGHTEENYKDTAPVLDSDGSYFIYSKLNMKTSKWEKTDSFSCNVRHEGLKNYYLKKTISRSPGK
light: B3 light with S12T, L30F, Y93F, F102L, S106A, I112L, K113R
notes: Murine antibody with full heavy and light chains; also called 1B6 (hybridoma); m1B6 mAb
EC50 [3]: ~0.06 µg/mL | binding result [4]: binds | binding result [5]: binds

B6: chimeric antibody 1B6 (antibody, human IgG1, kappa)
heavy: not shown
light: DIVMTQSPSSLTVTAGEKVTMSCKSSQSLFNSGNQKNYLTWYQQKPGQPPKLLIYWASTRESGVPDRFTGSGSGTDFTLTISSVQAEDLAVYFCQNDYSYPLTFGAGTKLELRRTVAAPSVFIFPPSDEQLKSGTASVVCLLNNFYPREAKVQWKVDNALQSGNSQESVTEQDSKDSTYSLSSTLTLSKADYEKHKVYACEVTHQGLSSPVTKSFNRGEC
ADCC reporter (Jurkat-NFAT-Luc-CD16 luciferase), half-peak concentration EC50, target cell BXPC-3-Claudin 18.2 [2]: 2.11 ng/mL | ADCC reporter (Jurkat-NFAT-Luc-CD16 luciferase), half-peak concentration EC50, target cell Capan-1-Claudin 18.2 [2]: 2.68 ng/mL | ADCC reporter (Jurkat-NFAT-Luc-CD16 luciferase), half-peak concentration EC50, target cell SK-GT-Claudin 18.2 [2]: 4.47 ng/mL | CDC activity (CCK8 cell viability, OD450), half inhibitory concentration IC50, target cell KATOIII-3-Claudin 18.2 [2]: 2.66 µg/mL

B7: chimeric antibody 1E7 (antibody, human IgG1, kappa)
heavy: not shown
light: B6 light with T12S, F30L, F93Y, L102F, A106S, L112I, R113K
ADCC reporter (Jurkat-NFAT-Luc-CD16 luciferase), half-peak concentration EC50, target cell BXPC-3-Claudin 18.2 [2]: 2.7 ng/mL | ADCC reporter (Jurkat-NFAT-Luc-CD16 luciferase), half-peak concentration EC50, target cell Capan-1-Claudin 18.2 [2]: 2.63 ng/mL | ADCC reporter (Jurkat-NFAT-Luc-CD16 luciferase), half-peak concentration EC50, target cell SK-GT-Claudin 18.2 [2]: 7.07 ng/mL | CDC activity (CCK8 cell viability, OD450), half inhibitory concentration IC50, target cell KATOIII-3-Claudin 18.2 [2]: 1.57 µg/mL
